Experimental findings from patent publication US11180560B2, “Compositions and methods to treat solid tumors” (Wayne State University, priority 2015, dated 2021) are described below.

Assay [1] concerns sensitive EOC cell lines, their Taxotere or Cisplatin resistant counterparts and colon, endometrial, lung, prostate, bladder, hepatocellular cancer cell lines. Put plainly: TACS MTT cell viability, Abciximab in cancer versus non-cancer cells. To be noted: increasing doses of Abciximab; cancer cells compared to non-cancer cells; FIG. 1A. The assay is classed as cell-based, human. An excerpt: FIGS. 1A-1E. Anti-cancer effects of Abciximab and NIF. (FIG. 1A) Anti-cancer effects of Abciximab in sensitive EOC cell lines (A2780, MDAH-2774, SKOV-3, OV90, TOV21G, OV112D, OV433, and HTB-161) and their Taxotere or Cisplatin resistant counterparts, human macrophages, and other cancer cell lines including colon (HTB-37), endometrial (CRL-1671), lung (CCL-257), prostate (CRL-1740), bladder (HTB-4), and hepatocellular (HB-8065) cancers, in vitro. (FIG. 1B) The combined effect of Abciximab alone or in combination with Cisplatin in both sensitive A2780 and their (FIG. 1C) Cisplatin resistant counterpart in vitro. […] (FIG. 1E) Anti-cancer effects of NIF in both sensitive A2780 and their Cisplatin resistant counterpart in vitro.
Cell viability was determined using the TACS MTT Cell Proliferation Assay (Trevigen, Gaithersburg, Md.) per the manufacturer's protocol. Briefly, measurement of cell proliferation is based upon the reduction of the tetrazolium salt, 3,[4,5-dimethytthiazol-2-yl]-2,5-diphenyl-tetrazolium bromide (MTT). MTT is reduced to an insoluble formazan dye by mitochondrial enzymes associated with metabolic activity of living cells. […] Absorbance was measured at 570 nm. […] A standard curve was constructed utilizing the OD readings correlating with each standard point and was utilized to determine cell number in the test samples. […]

Assay [2] relates to A2780 sensitive and cisplatin resistant EOC cells. Put plainly: TACS MTT cell viability in A2780 cells. To be noted: Abciximab combined with cisplatin, CI<1 indicates synergism, FIGS. 1B-1D. The assay is classed as cell-based, human. As for the experimental part: FIGS. 3A-3E. Cell viability in A2780 sensitive and cisplatin resistant EOC cells after treatment with integrin αV and integrin β1 antibody. (FIG. 3A) A2780 chemosensitive and (FIG. 3B) cisplatin resistant EOC cells were treated with or without integrin αV and integrin β1 antibody alone or in combination and viability was assessed using the TACS MTT Cell Proliferation Assay.
FIGS. 4A and 4B. Integrin αV and integrin β1 antibodies cross-react with a potential soluble target in EOC cell media. To test whether media collected from A2780 EOC cells contains a target that cross-reacts with the integrin αV or integrin β1 monoclonal antibodies, cells were cultured for 48 hours followed by removal of media. Either mouse anti-integrin αV or mouse anti-integrin β1 antibody was incubated with the conditioned cell culture media for 24 hours to block the antibody with the unknown target. […]
Cell viability was determined using the TACS MTT Cell Proliferation Assay (Trevigen, Gaithersburg, Md.) per the manufacturer's protocol. […] Absorbance was measured at 570 nm. […] A standard curve was constructed utilizing the OD readings correlating with each standard point and was utilized to determine cell number in the test samples.
Cell Viability was Determined Using the TACS MTT Cell Proliferation Assay (Trevigen, Gaithersburg, Md.) per the manufacturer's protocol. […]

B1: Abciximab (antibody, chains of the INN, looked up, V domains shown)
VH: EVQLQQSGTVLARPGASVKMSCEASGYTFTNYWMHWVKQRPGQGLEWIGAIYPGNSDTSYIQKFKGKAKLTAVTSTTSVYMELSSLTNEDSAVYYCTLYDGYYVFAYWGQGTLVTVSA
VL: EIVLTQSPVTLSVTPGDSVSLSCRASRDISNNLHWFQQTSHESPRLLIKYASQSMSGIPSRFSGSGSGTDFTLSINSVETEDFGMYFCQQTNSWPYTFGGGTKLEIK
modifications: Fab
B1: the “anti-cancer activity (cell viability)” value in assay [1] is given as “significant”. Besides, in assay [2], the “effect of combination with cisplatin” value is recorded as “synergistic effect”.
